Measurements reported in patent US20200079833A1 (AstraZeneca / MedImmune, published 2020).
Starred links: 1 amine or outer side, 2 acyl side, 3 side chain; linkers in the order of their positions; H or OH if unused. Non-standard residues stand in square brackets, D forms with d. Groups on a side chain read outwards from the residue. Primed or numbered codes have the meaning given here. No end group written: not given here. *: point of attachment. γGlu = O=C(O)[C@H](CCC(=O)[*:2])N[*:1]; Stearoyl = CCCCCCCCCCCCCCCCCC(=O)*; αMeF = C[C@](N)(Cc1ccccc1)C(=O)O; αMeK = C[C@](N)(CCCCN)C(=O)O; αMeS = C[C@](N)(CO)C(=O)O; PEG2′ = not defined here; Aib = CC(C)(N)C(=O)O

T1: glucose-dependent insulinotropic peptide (gastric inhibitory polypeptide) receptor (human, UniProt P48546 22-466)
T1 sequence (looked up): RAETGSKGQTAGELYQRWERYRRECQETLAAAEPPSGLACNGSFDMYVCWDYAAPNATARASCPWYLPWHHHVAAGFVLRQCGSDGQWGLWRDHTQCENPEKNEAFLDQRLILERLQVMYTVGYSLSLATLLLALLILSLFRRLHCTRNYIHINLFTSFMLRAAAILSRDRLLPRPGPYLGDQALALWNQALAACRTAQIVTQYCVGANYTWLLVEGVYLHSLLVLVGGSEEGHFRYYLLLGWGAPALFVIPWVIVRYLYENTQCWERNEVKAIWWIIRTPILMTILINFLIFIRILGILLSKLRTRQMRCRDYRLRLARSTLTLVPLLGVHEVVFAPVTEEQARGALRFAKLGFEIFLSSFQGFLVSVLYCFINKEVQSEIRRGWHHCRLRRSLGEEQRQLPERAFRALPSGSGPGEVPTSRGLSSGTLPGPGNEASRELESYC

B1: SEQ ID NO 53 (peptide)
peptide: H[Aib]EGS[αMeF]TSDV[αMeS]SYLEGEAAK([PEG2′-PEG2′-PEG2′-Stearoyl])E[αMeF]IA[αMeF]VV[αMeK]GG-NH2
B2: SEQ ID NO 63 (peptide)
peptide: H[Aib]EGS[αMeF]TSDVSK([PEG2′-PEG2′-PEG2′-Stearoyl])YLEGEAA[Aib]E[αMeF]IA[αMeF]VVEGG-NH2
B3: SEQ ID NO 62 (peptide)
peptide: H[Aib]EGS[αMeF]TSDVSK([PEG2′-PEG2′-PEG2′-Stearoyl])YLEGEAAEE[αMeF]IA[αMeF]VVEGG-NH2
B4: SEQ ID NO 51 (peptide)
peptide: H[Aib]EGSFTSDV[αMeS]S[αMeF]LEGEAAK([PEG2′-PEG2′-PEG2′-Stearoyl])E[αMeF]IA[αMeF]VV[αMeK]GG-NH2
B5: SEQ ID NO 52 (peptide)
peptide: H[Aib]EGS[αMeF]TSDVSS[αMeF]LEGEAAK([PEG2′-PEG2′-PEG2′-Stearoyl])E[αMeF]IA[αMeF]VV[αMeK]GG-NH2
B6: SEQ ID NO 61 (peptide)
peptide: H[Aib]EGS[αMeF]TSDVSK([PEG2′-PEG2′-PEG2′-Stearoyl])YLEGEAAKE[αMeF]IA[αMeF]VVEGG-NH2
B7: SEQ ID NO 60 (peptide)
peptide: H[Aib]EGS[αMeF]TSDVSK([PEG2′-PEG2′-γGlu-Stearoyl])YLEGEAA[αMeK]E[αMeF]IA[αMeF]VVEGG-NH2
B8: SEQ ID NO 54 (peptide)
peptide: H[Aib]EGS[αMeF]TSDV[αMeS]S[αMeF]LEGEAAK([PEG2′-PEG2′-PEG2′-Stearoyl])EFIA[αMeF]VV[αMeK]GG-NH2

Each binder was assayed against T1, glucose-dependent insulinotropic … (assay: cell-based or functional assay).
B1 was tested, and the “Primary assay EC50 (cAMP), n1” value was 26 nM and the “Primary assay EC50 (cAMP), n2” value was 26 nM. In the case of B2, the “Primary assay EC50 (cAMP), n1” value is reported as 25.7 nM and the “Primary assay EC50 (cAMP), n2” value is reported as 25.7 nM. B3 was tested, and the “Primary assay EC50 (cAMP), n1” value was 25 nM and the “Primary assay EC50 (cAMP), n2” value was 25 nM. In the case of B4, the “Primary assay EC50 (cAMP), n1” value is reported as 26 nM and the “Primary assay EC50 (cAMP), n2” value is reported as 26 nM. With B5 the “Primary assay EC50 (cAMP), n1” value was 26 nM and the “Primary assay EC50 (cAMP), n2” value was 26 nM. With B6 the “Primary assay EC50 (cAMP), n1” value was 25 nM and the “Primary assay EC50 (cAMP), n2” value was 25 nM. With B7 the “Primary assay EC50 (cAMP), n1” value was 25 nM and the “Primary assay EC50 (cAMP), n2” value was 25 nM. B8 was tested, and the “Primary assay EC50 (cAMP), n1” value was 26 nM and the “Primary assay EC50 (cAMP), n2” value was 26 nM.

These binders were tested against GLP-1 receptor (human, UniProt P43220 24-463) (assay: cell-based or functional assay).
B1 was tested, and the “Primary assay EC50 (cAMP), Mean pM GLP-1R” value was 0.9 pM, the “Primary assay EC50 (cAMP), n1” value was 0.00083 nM and the “Primary assay EC50 (cAMP), n2” value was 0.0009 nM. B2 was tested, and the “Primary assay EC50 (cAMP), Mean pM GLP-1R” value was 2.9 pM, the “Primary assay EC50 (cAMP), n1” value was 0.00321 nM and the “Primary assay EC50 (cAMP), n2” value was 0.00255 nM. In the case of B3, the “Primary assay EC50 (cAMP), Mean pM GLP-1R” value is reported as 1.9 pM, the “Primary assay EC50 (cAMP), n1” value is reported as 0.002 nM and the “Primary assay EC50 (cAMP), n2” value is reported as 0.0018 nM. B4 was tested, and the “Primary assay EC50 (cAMP), Mean pM GLP-1R” value was 2.1 pM, the “Primary assay EC50 (cAMP), n1” value was 0.0017 nM and the “Primary assay EC50 (cAMP), n2” value was 0.0024 nM. With B5 the “Primary assay EC50 (cAMP), Mean pM GLP-1R” value was 2 pM, the “Primary assay EC50 (cAMP), n1” value was 0.0015 nM and the “Primary assay EC50 (cAMP), n2” value was 0.0025 nM. For B6, the “Primary assay EC50 (cAMP), Mean pM GLP-1R” value was 0.9 pM, the “Primary assay EC50 (cAMP), n1” value was 0.00085 nM and the “Primary assay EC50 (cAMP), n2” value was 0.00091 nM. B7 was tested, and the “Primary assay EC50 (cAMP), Mean pM GLP-1R” value was 49 pM, the “Primary assay EC50 (cAMP), n1” value was 0.049 nM and the “Primary assay EC50 (cAMP), n2” value was 0.05 nM. With B8 the “Primary assay EC50 (cAMP), Mean pM GLP-1R” value was 0.9 pM, the “Primary assay EC50 (cAMP), n1” value was 0.00079 nM and the “Primary assay EC50 (cAMP), n2” value was 0.00093 nM.

The binders below were run against glucagon receptor (human, UniProt P47871 26-477) (assay: cell-based or functional assay).
Chain of glucagon receptor (P47871 26-477): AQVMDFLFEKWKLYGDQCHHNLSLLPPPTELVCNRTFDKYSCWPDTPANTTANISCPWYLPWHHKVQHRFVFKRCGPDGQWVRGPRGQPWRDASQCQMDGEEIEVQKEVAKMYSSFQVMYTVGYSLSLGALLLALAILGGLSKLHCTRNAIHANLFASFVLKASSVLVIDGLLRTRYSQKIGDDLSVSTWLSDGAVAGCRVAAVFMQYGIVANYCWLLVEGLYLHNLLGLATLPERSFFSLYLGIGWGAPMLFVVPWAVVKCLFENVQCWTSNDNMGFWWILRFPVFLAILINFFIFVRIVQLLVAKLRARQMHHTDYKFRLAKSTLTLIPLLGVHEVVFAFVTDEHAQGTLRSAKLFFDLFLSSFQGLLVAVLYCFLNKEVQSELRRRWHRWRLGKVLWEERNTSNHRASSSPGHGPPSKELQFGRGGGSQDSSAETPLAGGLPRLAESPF
For B1, the “Primary assay EC50 (cAMP), n1” value was 26 nM and the “Primary assay EC50 (cAMP), n2” value was 26 nM. With B2 the “Primary assay EC50 (cAMP), n1” value was 25.7 nM and the “Primary assay EC50 (cAMP), n2” value was 25.7 nM. For B3, the “Primary assay EC50 (cAMP), n1” value was 25 nM and the “Primary assay EC50 (cAMP), n2” value was 25 nM. For B4, the “Primary assay EC50 (cAMP), n1” value was 26 nM and the “Primary assay EC50 (cAMP), n2” value was 26 nM. B5 was tested, and the “Primary assay EC50 (cAMP), n1” value was 26 nM and the “Primary assay EC50 (cAMP), n2” value was 26 nM. In the case of B6, the “Primary assay EC50 (cAMP), n1” value is reported as 25 nM and the “Primary assay EC50 (cAMP), n2” value is reported as 25 nM. For B7, the “Primary assay EC50 (cAMP), n1” value was 25 nM and the “Primary assay EC50 (cAMP), n2” value was 25 nM. In the case of B8, the “Primary assay EC50 (cAMP), n1” value is reported as 26 nM and the “Primary assay EC50 (cAMP), n2” value is reported as 26 nM.
